This assay has as its target Caspase-3-L-tev-S (Homo sapiens (Human)) (UniProt P42574). In words: cell-based or functional assay.

As for membrane-bound TEVP (CAAX) (enzyme), the cell death of polytransfected HEK293 cells, Annexin V staining and flow cytometry was found to be 40 % cell death.

For the origin of these results see patent US20250152743A1, “SYNPOPTOSIS CIRCUITS FOR PROGRAMMABLE CELL DEATH CONTROL” (California Institute of Technology, priority 2023, published 2025).
